In patent US20160369001A1 (JCR PHARMACEUTICALS, published 2016):

B1: mouse single-chain anti-hTfR antibody of Clone M11 (maltose binding protein fusion, E. coli lysate supernatant) (scFv, not shown: large carriers)
scFv: DYKDIVMTQSHKFMSTSVGDRVSITCKASQDVGTAVAWYQQKPGQSPKLLIYWASTRHTGVPDRFTGSGSGTDFTLTISNVQSEDLADYFCQQYSSYLTFGAGTKLELKRGGGGSGGGGSGGGGSGGGGSEVMLVESGGDLVKPGGSLKLSCAASGFTFSSYGMSWVRQTPDKRLEWVATISSGGSYTYYPDSVKGRFTISRDNAKNTLYLQMSSLKSEDTAMYYCALLRSDWYFDVWGAGTTVTVSS
notes: Tested in the screening ELISA as an MBP fusion in crude E. coli lysate supernatant and detected with an HRP-labelled anti-MBP antibody; The scFv is light chain, linker, heavy chain
B2: mouse single-chain anti-hTfR antibody of Clone M23 (maltose binding protein fusion, E. coli lysate supernatant) (scFv, not shown: large carriers)
scFv: DYKDIVITQSHKFMSTSVGDRVSITCKASQDVSTAVAWYQQKPGQSPKLLIYSASYRYTGVPDRFTGSGSGTDFTFTISSVQAEDLAVYYCQQHYSTPYTFGGGTKLEIKRGGGGSGGGGSGGGGSGGGGSQVQLQQSGAELVRPGASVTLSCKASGYTFTDYEMHWVKQTPVHGLEWIGAIDPETGGTAYNQKFKGKATLTADKSSSTAYMELRSLTSEDSAVYYCTGWGFDYWGQGTTLTVSS
notes: Tested in the screening ELISA as an MBP fusion in crude E. coli lysate supernatant and detected with an HRP-labelled anti-MBP antibody
B3: mouse single-chain anti-hTfR antibody of Clone M27 (maltose binding protein fusion, E. coli lysate supernatant) (scFv, not shown: large carriers)
scFv: DYKDIVMTQSHKFMSTSVGDRVSITCKASQDVGTAVAWYQQKPGQSPKLLIYWASTRHTGVPDRFTGSGSGTDFTLTISNVQSEDLADYFCQQYSSYPYTFGGGTKLEIKRGGGGSGGGGSGGGGSGGGGSQVQLQQPGSELVRPGASVKLSCKASGYTFTSYWMHWVKQRPGQGLEWIGNIYPGSGSTNYDEKFKSKATLTVDTSSSTAYMQLSSLTSEDSAVYYCTRGATALDYWGQGTTLTVSS
notes: Tested in the screening ELISA as an MBP fusion in crude E. coli lysate supernatant; also called Clone 27

Target: T1, recombinant human TfR (rhTfR) (Sino Biological) (human, UniProt P02786 89-760)
T1 construct: Bought protein, coated on 96-well plates at 5 ug/mL; also called human transferrin receptor
Test: ELISA, rhTfR coated on plate, MBP-scFv lysate supernatant, HRP-labelled anti-MBP detection, A450
Description: E. coli (JM109) was transformed respectively with the mouse and human single-chain anti-hTfR antibody cDNA libraries, and then disseminated on LB plates containing ampicillin (Amp), and cultured overnight at 37° C. On the following day, the colonies formed on the plates were collected one by one, with which Overnight Express™ Instant LB Medium (Novagen), which had been dispensed beforehand to 96-well plates, was inoculated. After the plates were shaken overnight at 37° C., a tenth amount of Popculture Reagent (Novagen) was added to lyse the cells, and following addition of an equal amount of TBS-T, the resulting mixture was centrifuged to collect the supernatant. This supernatant was used as a sample solution.
To each well of the 96-well plates was added 5 μg/mL of recombinant human TfR (rhTfR) (Sino Biological) or 50 μL of bovine gamma globulin (Bio-Rad, Inc.), and the plates were left undisturbed at 4° C. overnight. After removal of the solution, each well was washed once with 300 μL of TBS-T. Then, to each well was added 300 μL of 1% BSA solution, and the plates were left undisturbed for 30 minutes at room temperature. After removal of the solution, 100 μL of the above sample solution was added to each well, and the plates were left undisturbed for two hours at room temperature. After removal of the solution, each well was washed three times with 300 μL of TBS-T, and 50 μL of HRP-labelled anti MBP antibody (Novagen) was added, and the plates were left undisturbed for one hour at room temperature. After removal of the solution, each well was washed three times with 300 μL of TBS-T, then 50 μL of POD substrate solution (Nacalai Tesque, Inc.) was added, and a reaction was allowed to proceed for 10-15 minutes at room temperature. […] Three clones, M11, M23 and M27 were obtained as high affinity clones to rhTfR from the mouse single-chain anti-hTfR antibody cDNA library. A clone (B84) was obtained as a high affinity clone to rhTfR from the human single-chain anti-hTfR antibody cDNA library.

T1 sequence (P02786 89-760 limits assumed): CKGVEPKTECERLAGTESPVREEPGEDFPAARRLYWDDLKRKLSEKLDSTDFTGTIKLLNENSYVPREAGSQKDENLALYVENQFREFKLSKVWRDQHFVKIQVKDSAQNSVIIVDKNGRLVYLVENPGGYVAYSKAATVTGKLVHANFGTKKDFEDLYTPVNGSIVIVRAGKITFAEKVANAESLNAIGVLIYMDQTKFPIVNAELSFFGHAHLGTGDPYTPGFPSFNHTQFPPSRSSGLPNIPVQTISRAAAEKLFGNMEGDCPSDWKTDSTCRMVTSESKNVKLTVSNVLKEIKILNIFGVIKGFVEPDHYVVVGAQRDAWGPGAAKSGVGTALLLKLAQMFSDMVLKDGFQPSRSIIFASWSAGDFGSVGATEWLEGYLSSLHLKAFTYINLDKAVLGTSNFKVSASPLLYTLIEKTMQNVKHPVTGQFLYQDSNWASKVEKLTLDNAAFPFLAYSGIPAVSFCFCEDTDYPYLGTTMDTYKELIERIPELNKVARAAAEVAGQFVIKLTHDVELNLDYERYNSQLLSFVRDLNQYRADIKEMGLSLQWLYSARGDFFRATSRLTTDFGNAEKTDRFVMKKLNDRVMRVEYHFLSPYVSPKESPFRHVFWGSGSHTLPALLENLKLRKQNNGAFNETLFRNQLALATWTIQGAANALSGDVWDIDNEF

Binder	binding result
B1	binds
B2	binds
B3	binds
